pEC50: −log10 of the molar value. Read-outs that look alike come from different tables or passages of the source.
What was measured:
human RXFP1 receptor = target: T1, human RXFP1 receptor (Homo sapiens, UniProt Q9HBX9); assay: Intracellular cAMP accumulation assay; type: cell-based; conditions: for EC50: CHO-K1 cells stably expressing human RXFP1, 10 min at 37° C., HTRF cAMP, average, read-out: hRXFP1/CHO-K1 cAMP EC50 (nM, avg)
T1 construct: expressed in transfected cells
T1 sequence (Q9HBX9 1-757): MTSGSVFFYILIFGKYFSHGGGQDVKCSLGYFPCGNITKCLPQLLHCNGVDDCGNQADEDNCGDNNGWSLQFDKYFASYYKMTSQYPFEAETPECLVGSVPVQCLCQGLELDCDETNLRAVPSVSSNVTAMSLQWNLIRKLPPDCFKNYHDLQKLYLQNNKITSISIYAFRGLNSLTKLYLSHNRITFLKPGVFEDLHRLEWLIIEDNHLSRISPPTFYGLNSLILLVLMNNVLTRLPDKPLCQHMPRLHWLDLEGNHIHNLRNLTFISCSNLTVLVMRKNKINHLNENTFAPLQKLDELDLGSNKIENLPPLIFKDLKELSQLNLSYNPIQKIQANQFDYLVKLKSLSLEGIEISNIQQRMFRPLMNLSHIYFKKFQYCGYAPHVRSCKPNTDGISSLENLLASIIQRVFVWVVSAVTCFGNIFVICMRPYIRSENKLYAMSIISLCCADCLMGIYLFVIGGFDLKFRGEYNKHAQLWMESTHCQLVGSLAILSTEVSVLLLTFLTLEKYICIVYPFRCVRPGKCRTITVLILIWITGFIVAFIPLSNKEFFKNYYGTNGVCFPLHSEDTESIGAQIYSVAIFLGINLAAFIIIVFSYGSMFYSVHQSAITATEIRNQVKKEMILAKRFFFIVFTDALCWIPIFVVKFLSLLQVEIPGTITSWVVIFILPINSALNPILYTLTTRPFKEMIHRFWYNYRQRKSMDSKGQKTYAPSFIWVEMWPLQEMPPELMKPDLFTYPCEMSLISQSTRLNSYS

[1] = In vivo pharmacokinetic (PK) studies in rats; set-up: species or system Sprague-Dawley rats; conditions: rat; for AUC(0-inf): read-out: Rat PK AUC Total; for level at time molar at 24 h: read-out: Rat PK C24
Procedure, shortened: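 Male Sprague-Dawley rats (n=3) given a single 1 mg/kg IV or SC dose of relaxin constructs in 20 mM histidine, 750 mM NaCl, pH 6.0; jugular serum sampled to 72 h. Serum relaxin by ELISA; Cmax, AUCinf, C24 and half-life from non-compartmental analysis of individual profiles.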

[2] = male Sprague-Dawley rats, single SC dose 1.0 mg/kg, serum ELISA
[3] = male, Sprague-Dawley, serum, rats, SC dose 0.8 mg/kg

| SMILES | pEC50 (human RXFP1 receptor) | AUC(0-inf) [1, 2] [µM·h] | level at time molar at 24 h [1, 2] [nM] | EC50 (human RXFP1 receptor) [nM] | AUC(0-inf) [1, 3] [µM·h] | level at time molar at 24 h [1, 3] [nM] |
| --- | --- | --- | --- | --- | --- | --- |
| CC[C@H](C)[C@@H]1NC(=O)[C@H](C)NC(=O)[C@H]([C@@H](C)CC)NC(=O)[C@H](CCC(N)=O)NC(=O)[C@H](C)NC(=O)[C@H](CCCNC(=N)N)NC(=O)[C@H](C(C)C)NC(=O)[C@H](CC(C)C)NC(=O)[C@H](CCC(=O)O)NC(=O)[C@H](CCCNC(=N)N)NC(=O)CNC(=O)[C@@H](NC(=O)[C@H](CC(C)C)NC(=O)[C@H](CCCCN)NC(=O)[C@@H](NC(=O)[C@@H](NC(=O)[C@H](CCC(=O)O)NC(=O)[C@H](CCC(=O)O)NC(=O)[C@H](CCSC)NC(=O)[C@H](Cc2c[nH]c3ccccc23)NC(=O)[C@H](CO)NC(=O)[C@H](C)N)C(C)C)[C@@H](C)CC)CSSC[C@@H]2NC(=O)[C@@H](NC(=O)[C@H](CCCCN)NC(=O)[C@H](CC(N)=O)NC(=O)[C@H](C)NC(=O)[C@H](CC(C)C)NC(=O)[C@H](C)NC(=O)[C@H](CO)NC(=O)[C@H](Cc3ccc(O)cc3)NC(=O)[C@H](CC(C)C)NC(=O)[C@@H](N)Cc3ccc(C(C)=NOCCNC(=O)CNC(=O)CNC(=O)CNC(=O)CNC(=O)[C@@H]4CCCN4C(=O)CC[C@H](NC(=O)CCCCCCCCCCCCCC(=O)O)C(=O)O)cc3)CSSC[C@H](NC(=O)CNC(=O)[C@H](C(C)C)NC(=O)[C@H](Cc3c[nH]cn3)NC2=O)C(=O)N[C@@H]([C@@H](C)O)C(=O)N[C@@H](CCCCN)C(=O)N[C@@H](CCCNC(=N)N)C(=O)N[C@@H](CO)C(=O)N[C@@H](CC(C)C)C(=O)N[C@@H](C)C(=O)N[C@@H](CCCNC(=N)N)C(=O)N[C@@H](Cc2ccccc2)C(=O)N[C@H](C(=O)O)CSSC[C@@H](C(=O)NCC(=O)N[C@@H](CCSC)C(=O)N[C@@H](CO)C(=O)N[C@H](C(=O)N[C@@H](Cc2c[nH]c3ccccc23)C(=O)N[C@@H](CO)C(=O)O)[C@@H](C)O)NC1=O [AQ1-GGGGP-Glu^γ-C14-COOH] | 9.41 | 2.18 | 3.9 | – | – | – |
| CC[C@H](C)[C@@H]1NC(=O)[C@H](C)NC(=O)[C@H]([C@@H](C)CC)NC(=O)[C@H](CCC(N)=O)NC(=O)[C@H](C)NC(=O)[C@H](CCCNC(=N)N)NC(=O)[C@H](C(C)C)NC(=O)[C@H](CC(C)C)NC(=O)[C@H](CCC(=O)O)NC(=O)[C@H](CCCNC(=N)N)NC(=O)CNC(=O)[C@@H](NC(=O)[C@H](CC(C)C)NC(=O)[C@H](CCCCN)NC(=O)[C@@H](NC(=O)[C@@H](NC(=O)[C@H](CCC(=O)O)NC(=O)[C@H](CCC(=O)O)NC(=O)[C@H](CCSC)NC(=O)[C@H](Cc2c[nH]c3ccccc23)NC(=O)[C@H](CO)NC(=O)[C@H](C)N)C(C)C)[C@@H](C)CC)CSSC[C@@H]2NC(=O)[C@@H](NC(=O)[C@H](CCCCN)NC(=O)[C@H](CC(N)=O)NC(=O)[C@H](C)NC(=O)[C@H](CC(C)C)NC(=O)[C@H](C)NC(=O)[C@H](CO)NC(=O)[C@H](Cc3ccc(O)cc3)NC(=O)[C@H](CC(C)C)NC(=O)[C@@H](N)Cc3ccc(C(C)=NOCCNC(=O)CNC(=O)CNC(=O)CNC(=O)CNC(=O)[C@H](CO)NC(=O)CC[C@H](NC(=O)CCCCCCCCCCCCC(=O)O)C(=O)O)cc3)CSSC[C@H](NC(=O)CNC(=O)[C@H](C(C)C)NC(=O)[C@H](Cc3c[nH]cn3)NC2=O)C(=O)N[C@@H]([C@@H](C)O)C(=O)N[C@@H](CCCCN)C(=O)N[C@@H](CCCNC(=N)N)C(=O)N[C@@H](CO)C(=O)N[C@@H](CC(C)C)C(=O)N[C@@H](C)C(=O)N[C@@H](CCCNC(=N)N)C(=O)N[C@@H](Cc2ccccc2)C(=O)N[C@H](C(=O)O)CSSC[C@@H](C(=O)NCC(=O)N[C@@H](CCSC)C(=O)N[C@@H](CO)C(=O)N[C@H](C(=O)N[C@@H](Cc2c[nH]c3ccccc23)C(=O)N[C@@H](CO)C(=O)O)[C@@H](C)O)NC1=O [AQ1-GGGGS-Glu^γ-C13-COOH] | – | – | – | 0.14 | 1.1 | 1.52 |
| CC[C@H](C)[C@@H]1NC(=O)[C@H](C)NC(=O)[C@H]([C@@H](C)CC)NC(=O)[C@H](CCC(N)=O)NC(=O)[C@H](C)NC(=O)[C@H](CCCNC(=N)N)NC(=O)[C@H](C(C)C)NC(=O)[C@H](CC(C)C)NC(=O)[C@H](CCC(=O)O)NC(=O)[C@H](CCCNC(=N)N)NC(=O)CNC(=O)[C@@H](NC(=O)[C@H](CC(C)C)NC(=O)[C@H](CCCCN)NC(=O)[C@@H](NC(=O)[C@@H](NC(=O)[C@H](CCC(=O)O)NC(=O)[C@H](CCC(=O)O)NC(=O)[C@H](CCSC)NC(=O)[C@H](Cc2c[nH]c3ccccc23)NC(=O)[C@H](CO)NC(=O)[C@H](C)N)C(C)C)[C@@H](C)CC)CSSC[C@@H]2NC(=O)[C@@H](NC(=O)[C@H](CCCCN)NC(=O)[C@H](CC(N)=O)NC(=O)[C@H](C)NC(=O)[C@H](CC(C)C)NC(=O)[C@H](C)NC(=O)[C@H](CO)NC(=O)[C@H](Cc3ccc(O)cc3)NC(=O)[C@H](CC(C)C)NC(=O)[C@@H](N)Cc3ccc(/C(C)=N/OCCNC(=O)CNC(=O)[C@H](CO)NC(=O)[C@H](Cc4c[nH]cn4)NC(=O)[C@H](Cc4c[nH]cn4)NC(=O)[C@H](Cc4c[nH]cn4)NC(=O)[C@H](Cc4c[nH]cn4)NC(=O)[C@H](Cc4c[nH]cn4)NC(=O)CNC(=O)[C@H](CO)NC(=O)CC[C@H](NC(=O)CCCCCCCCCCCCC(=O)O)C(=O)O)cc3)CSSC[C@H](NC(=O)CNC(=O)[C@H](C(C)C)NC(=O)[C@H](Cc3c[nH]cn3)NC2=O)C(=O)N[C@@H]([C@@H](C)O)C(=O)N[C@@H](CCCCN)C(=O)N[C@@H](CCCNC(=N)N)C(=O)N[C@@H](CO)C(=O)N[C@@H](CC(C)C)C(=O)N[C@@H](C)C(=O)N[C@@H](CCCNC(=N)N)C(=O)N[C@@H](Cc2ccccc2)C(=O)N[C@H](C(=O)O)CSSC[C@@H](C(=O)NCC(=O)N[C@@H](CCSC)C(=O)N[C@@H](CO)C(=O)N[C@H](C(=O)N[C@@H](Cc2c[nH]c3ccccc23)C(=O)N[C@@H](CO)C(=O)O)[C@@H](C)O)NC1=O [AQ1-GSHHHHHGS-Glu^γ-C13-COOH] | – | 0.582 | 0.46 | 0.28 | – | – |
| CC[C@H](C)[C@@H]1NC(=O)[C@H](C)NC(=O)[C@H]([C@@H](C)CC)NC(=O)[C@H](CCC(N)=O)NC(=O)[C@H](C)NC(=O)[C@H](CCCNC(=N)N)NC(=O)[C@H](C(C)C)NC(=O)[C@H](CC(C)C)NC(=O)[C@H](CCC(=O)O)NC(=O)[C@H](CCCNC(=N)N)NC(=O)CNC(=O)[C@@H](NC(=O)[C@H](CC(C)C)NC(=O)[C@H](CCCCN)NC(=O)[C@@H](NC(=O)[C@@H](NC(=O)[C@H](CCC(=O)O)NC(=O)[C@H](CCC(=O)O)NC(=O)[C@H](CCSC)NC(=O)[C@H](Cc2c[nH]c3ccccc23)NC(=O)[C@H](CO)NC(=O)[C@H](C)N)C(C)C)[C@@H](C)CC)CSSC[C@@H]2NC(=O)[C@@H](NC(=O)[C@H](CCCCN)NC(=O)[C@H](CC(N)=O)NC(=O)[C@H](C)NC(=O)[C@H](CC(C)C)NC(=O)[C@H](C)NC(=O)[C@H](CO)NC(=O)[C@H](Cc3ccc(O)cc3)NC(=O)[C@H](CC(C)C)NC(=O)[C@@H](N)Cc3ccc(/C(C)=N/OCCNC(=O)CNC(=O)[C@H](CO)NC(=O)[C@@H]4CCCN4C(=O)CNC(=O)[C@H](CO)NC(=O)[C@@H]4CCCN4C(=O)CC[C@H](NC(=O)CCCCCCCCCCCCCC(=O)O)C(=O)O)cc3)CSSC[C@H](NC(=O)CNC(=O)[C@H](C(C)C)NC(=O)[C@H](Cc3c[nH]cn3)NC2=O)C(=O)N[C@@H]([C@@H](C)O)C(=O)N[C@@H](CCCCN)C(=O)N[C@@H](CCCNC(=N)N)C(=O)N[C@@H](CO)C(=O)N[C@@H](CC(C)C)C(=O)N[C@@H](C)C(=O)N[C@@H](CCCNC(=N)N)C(=O)N[C@@H](Cc2ccccc2)C(=O)N[C@H](C(=O)O)CSSC[C@@H](C(=O)NCC(=O)N[C@@H](CCSC)C(=O)N[C@@H](CO)C(=O)N[C@H](C(=O)N[C@@H](Cc2c[nH]c3ccccc23)C(=O)N[C@@H](CO)C(=O)O)[C@@H](C)O)NC1=O [AQ1-GSPGSP-Glu^γ-C14-COOH] | 9.54 | 1.98 | 5 | – | – | – |
